# Biological target: mixture of three Der p 2 specific recombinant human IgE clones H10, H12, P4E (human) (UniProt P01854)
# Test: RBL-SX38 IgE displacement, FACS
# Chain of mixture of three Der p 2 specific recombinant human IgE clones H10, H12, P4E (human) (P01854 other isoform, or with tags, fused parts or gaps): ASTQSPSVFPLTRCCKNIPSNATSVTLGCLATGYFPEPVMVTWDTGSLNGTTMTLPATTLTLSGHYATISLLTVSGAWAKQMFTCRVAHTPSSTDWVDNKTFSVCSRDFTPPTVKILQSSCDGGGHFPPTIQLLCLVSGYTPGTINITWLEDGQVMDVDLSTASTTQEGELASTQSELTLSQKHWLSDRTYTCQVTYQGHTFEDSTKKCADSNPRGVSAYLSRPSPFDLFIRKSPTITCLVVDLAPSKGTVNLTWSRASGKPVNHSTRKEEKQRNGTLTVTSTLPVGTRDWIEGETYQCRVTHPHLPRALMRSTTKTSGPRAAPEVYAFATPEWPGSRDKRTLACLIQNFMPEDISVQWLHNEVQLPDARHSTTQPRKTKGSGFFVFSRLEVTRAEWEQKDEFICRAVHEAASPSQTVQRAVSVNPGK
Binder,EC50,Max effect/effect 1 µM
CIgG4F5A1(G4S)1 (Fc fusion) chain 1: GPPCPPCPAPEFLGGPSVFLFPPKPKDTLMISRTPEVTCVVVDVSQEDPEVQFNWYVDGVEVHNAKTKPREEQFNSTYRVVSVLTVLHQDWLNGKEYKCKVSNKGLPSSIEKTISKAKGQPREPQVYTLPPCQEEMTKNQVSLWCLVKGFYPSDIAVEWESNGQPENNYKTTPPVLDSDGSFFLYSRLTVDKSRWQEGNVFSCSVMHEALHNHYTQKSLSLSLGKGGGGSDVQLQESGGGLVQPGGSLRLSCAASGSIFSIDIMGWYRQAPGKQRELVATMPEGNYINYADSVKGRLTLSRDKGKNTVYLQLNSLKPEDTAVYYCYGFGVREGRGNVYWGQGTQVTVS chain 2: GPPCPPCPAPEFLGGPSVFLFPPKPKDTLMISRTPEVTCVVVDVSQEDPEVQFNWYVDGVEVHNAKTKPREEQFNSTYRVVSVLTVLHQDWLNGKEYKCKVSNKGLPSSIEKTISKAKGQPREPQVCTLPPSQEEMTKNQVSLSCAVKGFYPSDIAVEWESNGQPENNYKTTPPVLDSDGSFFLVSRLTVDKSRWQEGNVFSCSVMHEALHNHYTQKSLSLSLGKGGGGSEVQLLESGGGLVQPGGSLRLSCAASGFTFGNYDMAWVRQAPGKRPEWVSSIDTGGDITHYADSVKGRFTISRDNAKNTLYLQMNSLRPEDTAVYWCATDEEYALGPNEFDYYGQGTLVTVSS,,19%
CIgG4F5A1(G4S)2 (Fc fusion) chain 1: GPPCPPCPAPEFLGGPSVFLFPPKPKDTLMISRTPEVTCVVVDVSQEDPEVQFNWYVDGVEVHNAKTKPREEQFNSTYRVVSVLTVLHQDWLNGKEYKCKVSNKGLPSSIEKTISKAKGQPREPQVYTLPPCQEEMTKNQVSLWCLVKGFYPSDIAVEWESNGQPENNYKTTPPVLDSDGSFFLYSRLTVDKSRWQEGNVFSCSVMHEALHNHYTQKSLSLSLGKGGGGSGGGGSDVQLQESGGGLVQPGGSLRLSCAASGSIFSIDIMGWYRQAPGKQRELVATMPEGNYINYADSVKGRLTLSRDKGKNTVYLQLNSLKPEDTAVYYCYGFGVREGRGNVYWGQGTQVTVS chain 2: GPPCPPCPAPEFLGGPSVFLFPPKPKDTLMISRTPEVTCVVVDVSQEDPEVQFNWYVDGVEVHNAKTKPREEQFNSTYRVVSVLTVLHQDWLNGKEYKCKVSNKGLPSSIEKTISKAKGQPREPQVCTLPPSQEEMTKNQVSLSCAVKGFYPSDIAVEWESNGQPENNYKTTPPVLDSDGSFFLVSRLTVDKSRWQEGNVFSCSVMHEALHNHYTQKSLSLSLGKGGGGSGGGGSEVQLLESGGGLVQPGGSLRLSCAASGFTFGNYDMAWVRQAPGKRPEWVSSIDTGGDITHYADSVKGRFTISRDNAKNTLYLQMNSLRPEDTAVYWCATDEEYALGPNEFDYYGQGTLVTVSS,,25%
CIgG4F5A1(G4S)3 (Fc fusion) chain 1: GPPCPPCPAPEFLGGPSVFLFPPKPKDTLMISRTPEVTCVVVDVSQEDPEVQFNWYVDGVEVHNAKTKPREEQFNSTYRVVSVLTVLHQDWLNGKEYKCKVSNKGLPSSIEKTISKAKGQPREPQVYTLPPCQEEMTKNQVSLWCLVKGFYPSDIAVEWESNGQPENNYKTTPPVLDSDGSFFLYSRLTVDKSRWQEGNVFSCSVMHEALHNHYTQKSLSLSLGKGGGGSGGGGSGGGGSDVQLQESGGGLVQPGGSLRLSCAASGSIFSIDIMGWYRQAPGKQRELVATMPEGNYINYADSVKGRLTLSRDKGKNTVYLQLNSLKPEDTAVYYCYGFGVREGRGNVYWGQGTQVTVS chain 2: GPPCPPCPAPEFLGGPSVFLFPPKPKDTLMISRTPEVTCVVVDVSQEDPEVQFNWYVDGVEVHNAKTKPREEQFNSTYRVVSVLTVLHQDWLNGKEYKCKVSNKGLPSSIEKTISKAKGQPREPQVCTLPPSQEEMTKNQVSLSCAVKGFYPSDIAVEWESNGQPENNYKTTPPVLDSDGSFFLVSRLTVDKSRWQEGNVFSCSVMHEALHNHYTQKSLSLSLGKGGGGSGGGGSGGGGSEVQLLESGGGLVQPGGSLRLSCAASGFTFGNYDMAWVRQAPGKRPEWVSSIDTGGDITHYADSVKGRFTISRDNAKNTLYLQMNSLRPEDTAVYWCATDEEYALGPNEFDYYGQGTLVTVSS,,27%

# Other lines, results leading:
EC50,Max effect/effect 1 µM,Binder
2.3 nM,76%,NIgG4F6A1(G4S)2 (Fc fusion) chain 1: DVQLQESGGGLVQAGGSLRLSCAASGLTFGSYDMGWYRQAPGKQRELVGRIRNDGITYYADSVKGRFTMSRDNAKNTVYLQMNSLKPEDTAVYYCAADGTGLGHYDYWGQGTQVTVSGGGGSGGGGSGPPCPPCPAPEFLGGPSVFLFPPKPKDTLMISRTPEVTCVVVDVSQEDPEVQFNWYVDGVEVHNAKTKPREEQFNSTYRVVSVLTVLHQDWLNGKEYKCKVSNKGLPSSIEKTISKAKGQPREPQVYTLPPCQEEMTKNQVSLWCLVKGFYPSDIAVEWESNGQPENNYKTTPPVLDSDGSFFLYSRLTVDKSRWQEGNVFSCSVMHEALHNHYTQKSLSLSLGK chain 2: EVQLLESGGGLVQPGGSLRLSCAASGFTFGNYDMAWVRQAPGKRPEWVSSIDTGGDITHYADSVKGRFTISRDNAKNTLYLQMNSLRPEDTAVYWCATDEEYALGPNEFDYYGQGTLVTVSSGGGGSGGGGSGPPCPPCPAPEFLGGPSVFLFPPKPKDTLMISRTPEVTCVVVDVSQEDPEVQFNWYVDGVEVHNAKTKPREEQFNSTYRVVSVLTVLHQDWLNGKEYKCKVSNKGLPSSIEKTISKAKGQPREPQVCTLPPSQEEMTKNQVSLSCAVKGFYPSDIAVEWESNGQPENNYKTTPPVLDSDGSFFLVSRLTVDKSRWQEGNVFSCSVMHEALHNHYTQKSLSLSLGK
3.2 nM,26%,NIgG4F6A1(RS) (Fc fusion) chain 1: DVQLQESGGGLVQAGGSLRLSCAASGLTFGSYDMGWYRQAPGKQRELVGRIRNDGITYYADSVKGRFTMSRDNAKNTVYLQMNSLKPEDTAVYYCAADGTGLGHYDYWGQGTQVTVSRSGPPCPPCPAPEFLGGPSVFLFPPKPKDTLMISRTPEVTCVVVDVSQEDPEVQFNWYVDGVEVHNAKTKPREEQFNSTYRVVSVLTVLHQDWLNGKEYKCKVSNKGLPSSIEKTISKAKGQPREPQVYTLPPCQEEMTKNQVSLWCLVKGFYPSDIAVEWESNGQPENNYKTTPPVLDSDGSFFLYSRLTVDKSRWQEGNVFSCSVMHEALHNHYTQKSLSLSLGK chain 2: EVQLLESGGGLVQPGGSLRLSCAASGFTFGNYDMAWVRQAPGKRPEWVSSIDTGGDITHYADSVKGRFTISRDNAKNTLYLQMNSLRPEDTAVYWCATDEEYALGPNEFDYYGQGTLVTVSSRSGPPCPPCPAPEFLGGPSVFLFPPKPKDTLMISRTPEVTCVVVDVSQEDPEVQFNWYVDGVEVHNAKTKPREEQFNSTYRVVSVLTVLHQDWLNGKEYKCKVSNKGLPSSIEKTISKAKGQPREPQVCTLPPSQEEMTKNQVSLSCAVKGFYPSDIAVEWESNGQPENNYKTTPPVLDSDGSFFLVSRLTVDKSRWQEGNVFSCSVMHEALHNHYTQKSLSLSLGK
2.2 nM,68%,NIgG4F6A1(G4S)1 (Fc fusion) chain 1: DVQLQESGGGLVQAGGSLRLSCAASGLTFGSYDMGWYRQAPGKQRELVGRIRNDGITYYADSVKGRFTMSRDNAKNTVYLQMNSLKPEDTAVYYCAADGTGLGHYDYWGQGTQVTVSGGGGSGPPCPPCPAPEFLGGPSVFLFPPKPKDTLMISRTPEVTCVVVDVSQEDPEVQFNWYVDGVEVHNAKTKPREEQFNSTYRVVSVLTVLHQDWLNGKEYKCKVSNKGLPSSIEKTISKAKGQPREPQVYTLPPCQEEMTKNQVSLWCLVKGFYPSDIAVEWESNGQPENNYKTTPPVLDSDGSFFLYSRLTVDKSRWQEGNVFSCSVMHEALHNHYTQKSLSLSLGK chain 2: EVQLLESGGGLVQPGGSLRLSCAASGFTFGNYDMAWVRQAPGKRPEWVSSIDTGGDITHYADSVKGRFTISRDNAKNTLYLQMNSLRPEDTAVYWCATDEEYALGPNEFDYYGQGTLVTVSSGGGGSGPPCPPCPAPEFLGGPSVFLFPPKPKDTLMISRTPEVTCVVVDVSQEDPEVQFNWYVDGVEVHNAKTKPREEQFNSTYRVVSVLTVLHQDWLNGKEYKCKVSNKGLPSSIEKTISKAKGQPREPQVCTLPPSQEEMTKNQVSLSCAVKGFYPSDIAVEWESNGQPENNYKTTPPVLDSDGSFFLVSRLTVDKSRWQEGNVFSCSVMHEALHNHYTQKSLSLSLGK
,0%,CIgG4F5A1(RS) (Fc fusion) chain 1: GPPCPPCPAPEFLGGPSVFLFPPKPKDTLMISRTPEVTCVVVDVSQEDPEVQFNWYVDGVEVHNAKTKPREEQFNSTYRVVSVLTVLHQDWLNGKEYKCKVSNKGLPSSIEKTISKAKGQPREPQVYTLPPCQEEMTKNQVSLWCLVKGFYPSDIAVEWESNGQPENNYKTTPPVLDSDGSFFLYSRLTVDKSRWQEGNVFSCSVMHEALHNHYTQKSLSLSLGKRSDVQLQESGGGLVQPGGSLRLSCAASGSIFSIDIMGWYRQAPGKQRELVATMPEGNYINYADSVKGRLTLSRDKGKNTVYLQLNSLKPEDTAVYYCYGFGVREGRGNVYWGQGTQVTVS chain 2: GPPCPPCPAPEFLGGPSVFLFPPKPKDTLMISRTPEVTCVVVDVSQEDPEVQFNWYVDGVEVHNAKTKPREEQFNSTYRVVSVLTVLHQDWLNGKEYKCKVSNKGLPSSIEKTISKAKGQPREPQVCTLPPSQEEMTKNQVSLSCAVKGFYPSDIAVEWESNGQPENNYKTTPPVLDSDGSFFLVSRLTVDKSRWQEGNVFSCSVMHEALHNHYTQKSLSLSLGKRSEVQLLESGGGLVQPGGSLRLSCAASGFTFGNYDMAWVRQAPGKRPEWVSSIDTGGDITHYADSVKGRFTISRDNAKNTLYLQMNSLRPEDTAVYWCATDEEYALGPNEFDYYGQGTLVTVSS
34.8 nM,48%,NIgG4F5A1(G4S)3 (Fc fusion) chain 1: DVQLQESGGGLVQPGGSLRLSCAASGSIFSIDIMGWYRQAPGKQRELVATMPEGNYINYADSVKGRLTLSRDKGKNTVYLQLNSLKPEDTAVYYCYGFGVREGRGNVYWGQGTQVTVSGGGGSGGGGSGGGGSGPPCPPCPAPEFLGGPSVFLFPPKPKDTLMISRTPEVTCVVVDVSQEDPEVQFNWYVDGVEVHNAKTKPREEQFNSTYRVVSVLTVLHQDWLNGKEYKCKVSNKGLPSSIEKTISKAKGQPREPQVYTLPPCQEEMTKNQVSLWCLVKGFYPSDIAVEWESNGQPENNYKTTPPVLDSDGSFFLYSRLTVDKSRWQEGNVFSCSVMHEALHNHYTQKSLSLSLGK chain 2: EVQLLESGGGLVQPGGSLRLSCAASGFTFGNYDMAWVRQAPGKRPEWVSSIDTGGDITHYADSVKGRFTISRDNAKNTLYLQMNSLRPEDTAVYWCATDEEYALGPNEFDYYGQGTLVTVSSGGGGSGGGGSGGGGSGPPCPPCPAPEFLGGPSVFLFPPKPKDTLMISRTPEVTCVVVDVSQEDPEVQFNWYVDGVEVHNAKTKPREEQFNSTYRVVSVLTVLHQDWLNGKEYKCKVSNKGLPSSIEKTISKAKGQPREPQVCTLPPSQEEMTKNQVSLSCAVKGFYPSDIAVEWESNGQPENNYKTTPPVLDSDGSFFLVSRLTVDKSRWQEGNVFSCSVMHEALHNHYTQKSLSLSLGK
